Source: the Human Domainome abundance scans (Beltran et al. 2025)
± gives the uncertainty stated by the source.

B1: Syntaxin-binding protein 4, residues 493 to 538; numbered along this chain, Q6ZWJ1 (parent)
chain: LDMDCLPYGWEEAYTADGIKYFINHVTQTTSWIHPVMSVLNLSRSE

Variants of: B1
Test: abundance fitness (aPCA) (normalised: wild type 0, dead -1); higher = more abundant; growth selection in yeast, the domain comes from the species named
Conditions: Homo sapiens

Abundance fitness, by site and new letter:
V36: S 0.659 ± 0.084; F -0.444 ± 0.12; L -0.035 ± 0.082; Q 0.391 ± 0.1; T 0.526 ± 0.095; W -0.424 ± 0.12; N 0.571 ± 0.14; C 0.585 ± 0.11; A 0.59 ± 0.083; Y -0.254 ± 0.13; K 0.746 ± 0.11; P -0.597 ± 0.12; E 0.44 ± 0.093; I -0.598 ± 0.15; D 0.168 ± 0.11; H 0.224 ± 0.14; G 0.528 ± 0.082; R 0.712 ± 0.081
T29: V 0.766 ± 0.1; F -0.674 ± 0.12; K -0.759 ± 0.46; R -0.594 ± 0.14; N -0.759 ± 0.14; S -0.475 ± 0.098; G -0.777 ± 0.24; Y -0.61 ± 0.13; H -0.847 ± 0.13; Q -0.956 ± 0.39; C 0.271 ± 0.12; D -0.777 ± 0.17; W -0.556 ± 0.47; I 0.226 ± 0.1; A -0.486 ± 0.15; M -0.789 ± 0.19; L -0.969 ± 0.12
H34: P -0.181 ± 0.11; M -0.74 ± 0.17; D -0.54 ± 0.24; I -0.724 ± 0.19; T -0.877 ± 0.13; G -0.822 ± 0.1; R -0.488 ± 0.082; W -1.11 ± 0.15; Q -0.555 ± 0.15; N -0.141 ± 0.13; V -1 ± 0.14; K -0.686 ± 0.15; F -1.14 ± 0.31; C -0.439 ± 0.12; S -0.443 ± 0.097; Y -0.689 ± 0.15; E -0.826 ± 0.13
M37: H -0.15 ± 0.17; C 0.056 ± 0.11; S 0.28 ± 0.09; Y -0.374 ± 0.2; K 0.38 ± 0.11; A 0.219 ± 0.093; N 0.404 ± 0.21; E 0.327 ± 0.095; P -0.603 ± 0.14; T 0.146 ± 0.11; Q 0.397 ± 0.12; G 0.059 ± 0.08; L -0.085 ± 0.092; R 0.558 ± 0.079; F -0.292 ± 0.18; V -0.226 ± 0.1
F22: T -0.458 ± 0.1; D -0.794 ± 0.22; S -0.832 ± 0.11; P -0.895 ± 0.15; A -0.956 ± 0.11; E -0.789 ± 0.14; K -0.637 ± 0.14; N -0.787 ± 0.19; I -0.728 ± 0.16; C -0.659 ± 0.12; V -0.904 ± 0.099; Q -0.823 ± 0.16; L -0.854 ± 0.094; R -0.872 ± 0.092; M -0.44 ± 0.14; G -0.782 ± 0.09
P35: E -0.634 ± 0.15; S -0.661 ± 0.11; T -0.686 ± 0.16; W -0.775 ± 0.16; K -0.533 ± 0.15; Y -0.369 ± 0.15; R -0.88 ± 0.097; V -0.882 ± 0.1; C -1.06 ± 0.21; A -1.01 ± 0.11; M -0.814 ± 0.14; N -0.862 ± 0.18; Q -0.72 ± 0.14; H -0.83 ± 0.15; I -0.82 ± 0.16; F -0.895 ± 0.16
V39: P 1.03 ± 0.11; M -0.174 ± 0.12; T 0.04 ± 0.11; H -0.263 ± 0.18; F 0.072 ± 0.15; G 0.352 ± 0.086; C -0.134 ± 0.16; R -0.083 ± 0.086; L -0.386 ± 0.097; E 0.144 ± 0.098; K -0.205 ± 0.12; Q 0.223 ± 0.12; N 0.168 ± 0.18; Y -0.851 ± 0.26; S -0.079 ± 0.093; W -0.55 ± 0.13; D 0.466 ± 0.11; I -0.599 ± 0.15; A -0.135 ± 0.095
V26: G 0.022 ± 0.08; H 0.137 ± 0.14; T 0.168 ± 0.12; S -0.07 ± 0.098; L -0.482 ± 0.1; K -0.29 ± 0.27; W -0.846 ± 0.12; F -0.294 ± 0.15; A 0.058 ± 0.094; I -0.038 ± 0.094; R -0.096 ± 0.08; Q -0.004 ± 0.2; D -0.087 ± 0.14; M -0.29 ± 0.11
S38: E -0.693 ± 0.13; N -0.046 ± 0.13; Q -0.697 ± 0.15; F -0.531 ± 0.13; I -0.845 ± 0.23; Y -0.376 ± 0.14; V -0.502 ± 0.094; R -0.418 ± 0.085; L -0.78 ± 0.11; A -0.649 ± 0.1; H -0.678 ± 0.21; C -0.567 ± 0.14; K -0.479 ± 0.11; T -0.75 ± 0.13; W -0.264 ± 0.1; M -0.663 ± 0.13; D -0.004 ± 0.13; P -0.141 ± 0.097
T27: K -0.045 ± 0.13; Y 0.394 ± 0.15; W -0.179 ± 0.1; N -0.407 ± 0.2; A -0.513 ± 0.096; E -0.672 ± 0.13; V -0.872 ± 0.1; H 0.176 ± 0.16; F 0.071 ± 0.25; G -0.248 ± 0.079; D -0.127 ± 0.16; Q -0.344 ± 0.14; I -0.814 ± 0.25; S -0.348 ± 0.1; R -0.234 ± 0.081; M 0.168 ± 0.1
